In experiment [1] the target is T1, Alcohol Dehydrogenase (TbADH) (Thermoanaerobacter brockii, UniProt P14941).
T1 sequence (P14941 1-352): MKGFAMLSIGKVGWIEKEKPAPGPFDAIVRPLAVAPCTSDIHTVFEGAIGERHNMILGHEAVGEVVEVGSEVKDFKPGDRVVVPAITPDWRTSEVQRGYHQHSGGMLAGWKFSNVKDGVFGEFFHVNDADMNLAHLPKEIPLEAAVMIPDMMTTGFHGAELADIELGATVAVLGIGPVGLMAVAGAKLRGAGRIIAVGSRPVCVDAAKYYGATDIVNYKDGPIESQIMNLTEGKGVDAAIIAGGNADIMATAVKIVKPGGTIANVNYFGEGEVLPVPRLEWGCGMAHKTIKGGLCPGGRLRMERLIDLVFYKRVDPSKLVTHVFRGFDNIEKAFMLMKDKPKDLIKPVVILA
Nature of the experiment: functional inhibition experiment, alcohol dehydrogenase. It counts as biochemical, thermophilic bacterium. Conditions: for inhibition of TbADH: in vitro functional inhibition. An excerpt: (§1) The selectivity of anti CoTCPP and anti Imisdp was further challenged, by testing their cross reactivity with non related zinc dependent enzymes—Carbonic Anhydrase (CA) and brockii alcohol dehydrogenase (TbADH). Similar to active MMPs CA contains a zinc ion that is tetrahedraly coordinated to three histidine residues and a water molecule, TbADH contains a catalytic zinc ion that is tetraheadrally coordinated to four different amino acid residues, histidine, cysteine, aspartate and glutamate. […] Anti CoTCPP mAb was also tested for its cross reactivity with related physiological porphyrins such as the Heme group within Myoglobin and Hemoglobin and vitamin.
(§2) 6C6 was also tested for cross reactivity with different zinc dependent metalloproteases, Carbonic Anhydrase and Alcohol Dehydrogenase. Analogous to MMPs, Carbonic Anhydrase (CA) has a catalytic zinc ion tetrahedraly coordinated to three histidine ligands and a water molecule. Consequently, several potent small molecule MMP inhibitors (of the sulfonylated amino acid hydroxamate type) also act as efficient CA inhibitors and vice versa. Some N-hydroxysulfonamides investigated previously as CA inhibitors also show inhibitory properties against MMPs [Scozzafava, A. and C. T. Supuran, J Med Chem, 2000. 43(20): p. 3677-87]. The active site of Alcohol Dehydrogenase from thermophilic bacterium (TbADH) includes a different zinc-protein moiety in which zinc is bound to histidine, cysteine, aspartate and glutamate located inside a crevice.

Another experiment concerns MMP-9. Nature of the experiment: kinetic assay with fluorogenic peptide substrate, MMP-9. The experiment is classed as biochemical, human. The following applies: for mode of inhibition of MMP-9: Lineweaver-Burk plot; for IC50: Table 4; for inhibition of proteolytic activity of MMP-9: continuous fluorometric assay.
The target in experiment [2] is T2, brockii alcohol dehydrogenase (TbADH) (Thermoanaerobacter brockii, UniProt P14941).
T2 sequence (P14941 1-352): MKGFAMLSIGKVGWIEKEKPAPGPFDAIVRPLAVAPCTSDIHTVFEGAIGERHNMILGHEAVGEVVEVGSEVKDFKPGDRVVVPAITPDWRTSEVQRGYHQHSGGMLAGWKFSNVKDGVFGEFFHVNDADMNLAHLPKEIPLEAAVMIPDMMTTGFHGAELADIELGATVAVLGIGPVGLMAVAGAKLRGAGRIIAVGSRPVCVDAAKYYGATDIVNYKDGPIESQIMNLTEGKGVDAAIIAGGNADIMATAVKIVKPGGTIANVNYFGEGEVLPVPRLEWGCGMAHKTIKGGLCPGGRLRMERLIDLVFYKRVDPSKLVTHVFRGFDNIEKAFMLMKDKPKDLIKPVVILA
The experiment in a line: immuno affinity binding experiment, alcohol dehydrogenase. On the set-up: species or system thermophilic bacterium.
Description: as §1

Experiment [3] deals with Carbonic Anhydrase (CA). The experiment in a line: immuno affinity binding experiment, Carbonic Anhydrase.
Description: as §1

In a further experiment the target is MT1-MMP (MMP-14) (Homo sapiens, UniProt P50281). The experiment in a line: kinetic assay with fluorogenic peptide substrate, MT1-MMP. The experiment is classed as biochemical. The following applies: for Ki: fit to competitive inhibition, fluorogenic peptide substrate.
The subject of the next experiment is MT1 catalytic domain. Nature of the experiment: immuno affinity binding assay, MT1-MMP. Conditions: purified enzyme. As for the experimental part:
MAbs (10 μg) were incubated with anti mouse IgG Agarose beads (Sigma) overnight at 4° C. in PBS. After washing unbound antibody, purified Pro-MMP-2, Pro-MMP-9 MMP-2 catalytic domain, MT1 catalytic domain or TACE (2 μg), were added following 2 h incubation at RT. The beads were collected by centrifugation and washed three times with PBS. The proteins that remained bound to the beads were eluted with SDS sample buffer, fractionated by SDS-PAGE, and detected by staining with Coomassie blue.

The subject of experiment [4] is Carbonic Anhydrase (CA). The experiment in a line: functional inhibition experiment, Carbonic Anhydrase. The following applies: for inhibition of Carbonic Anhydrase: in vitro functional inhibition. It counts as biochemical.
Description: as §1, §2

The subject of the next experiment is MMP-2. Nature of the experiment: kinetic assay with fluorogenic peptide substrate, MMP-2. The experiment is classed as biochemical, human. Conditions: for inhibition of proteolytic activity of MMP-2: continuous fluorometric assay.
Experiment [5] has as its system cell surface gelatinolytic activity of HT1080 cells. Nature of the experiment: in situ zymography with DQ-gelatin. The experiment is classed as cell-based, human. As for the experimental part:
To localize net gelatinolytic activity of MMPs by in situ zymography, fluorescein isothiocyanate-labeled DQ gelatin that is intramolecularly quenched (Molecular Probes) was used as a substrate for degradation by gelatinases. Proteolysis by gelatinases yields cleaved fluorescein isothiocyanate-gelatin peptides and the localization of this fluorescence indicates the sites of net gelatinolytic activity. Briefly, Human fibrosarcoma HT1080 cells (which produce MMP-2, MMP-9 and MT1-MMP) were plated on 12-mm coverslips. […] Untreated cells served as negative control for this experiment. Cells were washed with PBS and then incubated with zymography reaction buffer (0.05 M Tris-HCl, 0.15 M NaCl, 5 mM CaCl2, and 0.2 mM NaN3, pH 7.6, the high concentration of azide prevented the gelatin from being phagocytosed and thus allowing cell surface gelatinolytic activity to occur) containing 60 ug/ml DQ gelatin at 37° C. overnight. […] At the end of the incubation period, without fixation or further washes, gelatinolytic activity of the MMPs was localized and photographed by fluorescence microscopy and images were acquired by Spot digital camera.
To confirm the inhibitory activity of anti CoTCPP mAb at cellular level, the effect of the antibody was examined on gelatinolytic activity of human fibrosarcoma HT1080 cells that constitutively secrete MMP-2 and 9 by in situ zymography. To localize gelatinolytic activity of MMPs by in situ zymography, fluorescein isothiocyanate-labeled gelatin that is intramolecularly quenched (DQ-gelatin) was used as substrate. Proteolysis by gelatinases yields cleaved fluorescein isothiocyanate-gelatin peptides and the localization of this fluorescence indicates the sites of net gelatinolytic activity.

For a further experiment, the target named is TACE (ADAM-17) (Homo sapiens, UniProt P78536). The experiment in a line: kinetic assay with fluorogenic peptide QF-45, TACE. It counts as biochemical. The following applies: for inhibitory effect toward TACE: in-vitro fluorescence enzymatic activity assay.
A short description of experiment [6]: competitive ELISA, affinity of mAbs toward their immunizing hapten. The following applies: concentration of soluble hapten for 50% binding. As for the experimental part:
Supernatants of the growing hybridomas were screened for antibodies reactive with ZnTCPP, CoTCPP or Imisdp using direct ELISA in which respective hapten-BSA (3 μg/ml in PBS) was coated to Nunc maxisorp plates. The coating was performed at 4° C. overnight and incubation with antibodies at 20° C. for 1 h. HRP-conjugated anti-mouse mAb (Sigma) was used as the secondary antibody and 2,2′-azino-bis (3-ethylbenzthiazoline-6-sulphonic acid, ABTS, Sigma) was used as substrate. PBS containing 0.005% v/v Tween 20 (PBST) was used as washing reagent. The dilution buffer was PBS. A602 was recorded by microplate reader in […]luor Plus spectrometer (Tecan, Austria). As control supernatants were incubated with BSA coated plates in the same manner Absorbance values above 0.5 millioptical density were considered as positive.
Different dilutions of hybridoma supernatant were incubated with hapten-BSA coated plates following the steps described earlier. Titration curve was plotted and the titer dilution was determined at 50% of binding. Supernatants diluted to the titer concentration were preincubated with soluble ZnTCPP, CoTCPP or Imisdp compounds for 30 minutes and then transferred to hapten-coated microtiter plates following the steps described previously. The estimated dissociation constant was the concentration of soluble hapten required to attain 50% binding.
On the technique in general: An ELISA detects its analyte on a solid surface through an enzyme-linked reagent.

“And” between values parts separate entries of the source, which are not always exact repeats. Equal values may be shown once. “Also recorded” adds a separate entry of the source.

Sequence of TACE (ADAM-17) (P78536 215-824, species assumed): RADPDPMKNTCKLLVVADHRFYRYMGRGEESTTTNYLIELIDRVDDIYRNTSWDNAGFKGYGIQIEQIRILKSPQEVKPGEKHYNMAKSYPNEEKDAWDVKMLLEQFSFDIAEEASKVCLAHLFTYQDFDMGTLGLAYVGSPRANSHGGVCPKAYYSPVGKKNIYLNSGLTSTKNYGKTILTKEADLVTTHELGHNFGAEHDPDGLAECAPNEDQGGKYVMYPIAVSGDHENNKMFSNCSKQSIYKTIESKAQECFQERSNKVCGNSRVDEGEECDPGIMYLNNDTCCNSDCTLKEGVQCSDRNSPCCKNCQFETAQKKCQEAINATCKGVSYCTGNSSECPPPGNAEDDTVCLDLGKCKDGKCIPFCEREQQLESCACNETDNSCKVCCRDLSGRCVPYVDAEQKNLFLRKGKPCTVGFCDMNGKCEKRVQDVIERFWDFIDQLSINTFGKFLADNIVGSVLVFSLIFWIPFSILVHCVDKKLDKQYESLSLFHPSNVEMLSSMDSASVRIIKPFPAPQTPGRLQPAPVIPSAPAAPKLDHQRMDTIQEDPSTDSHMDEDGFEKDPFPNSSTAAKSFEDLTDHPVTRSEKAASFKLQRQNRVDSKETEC
Sequence of MMP-9 (P14780 107-444 limits assumed): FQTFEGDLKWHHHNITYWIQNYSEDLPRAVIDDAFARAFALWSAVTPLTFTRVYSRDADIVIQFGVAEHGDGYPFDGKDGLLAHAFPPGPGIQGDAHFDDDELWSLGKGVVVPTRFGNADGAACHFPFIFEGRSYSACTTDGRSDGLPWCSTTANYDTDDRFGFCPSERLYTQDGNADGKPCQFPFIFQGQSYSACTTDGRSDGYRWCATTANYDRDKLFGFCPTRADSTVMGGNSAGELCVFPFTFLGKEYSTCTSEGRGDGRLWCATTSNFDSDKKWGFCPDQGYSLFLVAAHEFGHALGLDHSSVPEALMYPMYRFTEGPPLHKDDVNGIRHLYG

B1: 13E11: monoclonal antibody, IgG2b, raised against the hapten CoTCPP (antibody, V domains shown)
VH: EGGGLVQPGGSRKLSCAASGFTFTSFGMHWVRQAPEKGLEWVAYISSGNEIIYYADTVKGRFTISRDNPKNTLFLQMTSLRSEDTAMYYCARNYYRYGFYVMDYWGQG
VL: EIVVTQSPAILSASPGEKVTMTCRASSSVSYMHWYQQKPGSSPKPWIYATSNELASGVPARFSGSGSGTSYSLTISRVEAEDAATYYCQQWISNPLTFGAG
modifications: 13E11 mAb heavy chain; 13E11 mAb light chain
notes: monoclonal antibody, IgG2b, raised against the hapten CoTCPP
One may read the IC50 as the point on the concentration scale where inhibition reaches its midpoint. Low readings indicate inhibition by little substance, high ones a need for much substance. The term Kd denotes a measure of binding affinity in units of concentration. Low readings indicate tighter binding, high ones weaker binding. With B1, the “inhibition of TbADH” value in experiment [1] is recorded as “no binding or inhibition”. In the experiment on MMP-9, the “mode of inhibition of MMP-9” value is “competitive inhibitor”, the IC50 came to 15 ± 0.8 µM and the “inhibition of proteolytic activity of MMP-9” value is on record as “inhibited”. Moreover, the “binding to TbADH” value in experiment [2] is “no binding”. In the experiment on Carbonic Anhydrase (CA) [3], the “binding to Carbonic Anhydrase” value is recorded as “no binding”. The “inhibitory effect toward MT1-MMP” value with MT1-MMP (MMP-14) (in-vitro fluorescence enzymatic activity assay) was “no inhibitory effect”. In addition, the “binding to MT1-MMP” value in the experiment with MT1 catalytic domain is given as “no binding was detected”. Further, the “inhibition of Carbonic Anhydrase” value in the experiment with Carbonic Anhydrase (CA) [4] is reported as “no binding or inhibition”. Besides, the “inhibition of proteolytic activity of MMP-2” value in the experiment on MMP-2 is reported as “inhibited”. Besides, the “cell surface gelatinase activity” value in experiment [5] (1 μM mAb, listed as anti CoTCPP mAb) was “reduced; also recorded: significantly inhibited”. Moreover, the “inhibitory effect toward TACE” value in the experiment with TACE (ADAM-17) was “no inhibitory effect”. Besides, the affinity in experiment [6], expressed as Kd, was 0.09 µM.

B2: 6C6: monoclonal antibody, IgG2a, raised against the hapten Imisdp; MMP-2 and MMP-9 inhibitory; SEQ ID NO: 1 (protein)
chain: CMETTQTPLSLPVSLGDQASISCRSSQSIVHSNGNTFLEWYLQKPGQSPKLLIYKVSNCRFSGVPDRFSGSGSGTDFTLKISRVEAEDLGVYYCFQASHVPPTFGGG
modifications: 6c6 mAb light chain
As usually defined, the Ki is a measure of affinity in units of concentration, obtained from inhibition or displacement. The low end stands for higher affinity, the high end for lower affinity. On to B2, for which the “inhibition of TbADH” value in experiment [1] is given as “no binding or inhibition”. For the same molecule, the “inhibitory effect toward TbADH” value in experiment [1] (mAb concentrations up to 30 μM) was “no inhibitory effect”. In addition, the “mode of inhibition of MMP-9” value in the experiment with MMP-9 is “competitive inhibition profile”. For the same molecule, the IC50 with MMP-9 was 4.5 ± 0.2 µM; with MT1-MMP (MMP-14) (Table 4), 14.4 ± 0.7 µM; in the experiment on MMP-2 (Table 4), 3 ± 0.2 µM; in the experiment with TACE (ADAM-17) (Table 4), greater than 30 µM. For the same molecule, the “inhibition of proteolytic activity of MMP-9” value in the experiment with MMP-9 is “inhibited”. In experiment [2], the “binding to TbADH” value is listed as “no binding”. Moreover, the “binding to Carbonic Anhydrase” value with Carbonic Anhydrase (CA) [3] is on record as “no binding”. Also, the Ki was 14.4 µM and 15 µM with MT1-MMP (MMP-14); 10 µM in the experiment with MT1-MMP (MMP-14) (listed as anti Imisdp mAb). Besides, the “inhibition of Carbonic Anhydrase” value in the experiment on Carbonic Anhydrase (CA) [4] is on record as “no binding or inhibition”. Further, the “inhibitory effect toward Carbonic Anhydrase” value in the experiment with Carbonic Anhydrase (CA) [4] (mAb concentrations up to 30 μM) is “no inhibitory effect”. Also, the “inhibition of proteolytic activity of MMP-2” value in the experiment on MMP-2 is “inhibited”. Also, the “cell surface gelatinolytic activity” value in [5] (5 μM mAb) is “significantly decreased; also recorded: significantly inhibited”. Also, in the experiment with TACE (ADAM-17), the “inhibitory effect toward TACE” value is “did not display inhibitory effect”. Besides, the “inhibition of TACE” value with TACE (ADAM-17) (mAb concentrations of up to 30 μM) is on record as “neither MMP-7 nor TACE were inhibited to any measurable extent”. Moreover, the Kd in experiment [6] was 0.09 µM.

Source of the values: patent US9902783B2, “Antibodies and pharmaceutical compositions containing same useful for inhibiting activity of metalloproteins” (Yeda Research and Development Co. Ltd., priority 2007, dated 2018).
